Measured values reported in patent US7060449.

Experiments:
rat GALR2 (rat) [1] = biological target: T1, rat GALR2 (rat); test: competition; conditions: modification not given
T1 chain: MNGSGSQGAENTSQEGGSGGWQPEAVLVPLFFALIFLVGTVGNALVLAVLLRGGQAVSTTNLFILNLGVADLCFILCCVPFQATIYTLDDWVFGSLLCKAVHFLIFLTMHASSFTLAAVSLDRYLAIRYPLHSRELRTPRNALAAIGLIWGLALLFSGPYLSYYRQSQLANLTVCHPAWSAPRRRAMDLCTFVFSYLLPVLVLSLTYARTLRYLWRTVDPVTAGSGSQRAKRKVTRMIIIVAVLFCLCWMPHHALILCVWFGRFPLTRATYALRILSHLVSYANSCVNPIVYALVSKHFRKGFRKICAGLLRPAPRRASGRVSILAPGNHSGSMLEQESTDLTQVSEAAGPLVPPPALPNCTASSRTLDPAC

rat GALR2 (rat) [2] = biological target: T1, rat GALR2 (rat); test: radioligand; conditions: modification not given

Binder | Ki (rat GALR2 (rat) [1]) | Kd (rat GALR2 (rat) [2])
GWTLNSAGY [porcine galanin 1-9, P07480] | > 1000 nM | 
GWTLNSAGYLLGPHAIDNHRSFHDKYGLA [[D-Trp2]porcine galanin(1-29), P07480] | 6.46 nM | 
GATLNSAGYLLGPHAI [porcine Ala2-galanin 1-16, P07480] | > 1000 nM | 
GWTLNSAGYLLGPHAIDNHRSFHDKYGLA [[125I]porcine galanin, P07480] |  | 0.2 nM
GFTLNSAGYLLGPHAI [Phe2-galanin 1-16, P07480] | > 1000 nM | 
GFTLNSAGYLLGPHAIDNHRSFHDKYGLA [[Phe2]porcine galanin(1-29), P07480] | > 1000 nM | 
GWTLASAGYLLGPHAI [[Ala5]galanin(1-16), P07480] | > 620 nM | 
DNHRSFHDKYGLA [porcine galanin 17-29, P07480] | > 1000 nM | 
GWTLNSAGYLLGPHAIDNHRSFHDKYGLA [porcine galanin(1-29), P07480] | 0.447 nM | 
GWTLNSAGALLGPHAI [[Ala9]galanin(1-16), P07480] | > 1000 nM | 
